Results on two molecules are retold here after article PMC9386465.

Where two headings read alike, the source gives them in different places.

Series [1] concerns the target T1, ErmS (TlrA) rRNA adenine-N6 dimethyltransferase (Streptomyces fradiae, UniProt P45439 1-319).
T1 sequence: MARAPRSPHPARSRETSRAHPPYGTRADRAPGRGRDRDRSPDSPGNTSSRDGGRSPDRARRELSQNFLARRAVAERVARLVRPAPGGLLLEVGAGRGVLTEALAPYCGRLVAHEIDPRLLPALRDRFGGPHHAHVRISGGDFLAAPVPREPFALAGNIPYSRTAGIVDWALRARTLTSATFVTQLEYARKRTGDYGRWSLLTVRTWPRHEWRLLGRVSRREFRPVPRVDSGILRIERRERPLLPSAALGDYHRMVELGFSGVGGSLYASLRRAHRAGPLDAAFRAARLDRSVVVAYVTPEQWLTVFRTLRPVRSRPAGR
The series can be described thus: stopped-flow fluorescence.

Series [2] concerns the target T1, ErmS (TlrA) rRNA adenine-N6 …. The series can be described thus: stopped-flow fluorescence. The source holds these as a separate data set.

Regarding GGCAAGACGGAAAGACCCCUAUCUGCC (structured_RNA, 2-aminopurine replaces A2054 (nt 7)) [2Ap2054], the binding result in series [1] is “binds”. In the case of GGCAAGACGGAAAGACCCCUAUCUGCC (structured_RNA, 2-aminopurine replaces A2058 (nt 11)) [2Ap2058], the binding result in series [2] was “binds”.
